Source: paper PMC12579241

Columns and labels:
Test in all cases: SPR
[1] = target: IgG1 Fc fragment (prepared by IdeS digest of bevacizumab) (human)
[2] = target: recombinant Fab fragment of trastuzumab (human) [IgG part: P01857]
[3] = target: trastuzumab (Herceptin) (human) (UniProt P01834)

Azo-ProtG (wild-type C2 domain of streptococcal protein G with N-terminal Azo-tag and C-terminal Strep-tag II) (domain or fragment)
Kd [1]: 499 nM
Kd [2]: 19700 nM

Azo-ProtG^N478R (C2 domain of streptococcal protein G with Asn478 replaced by Arg, N-terminal Azo-ta (domain or fragment)
Kd [1]: 682 nM
Kd [2]: > 256000 nM
Kd [3]: 459 nM
